Biological target: the molecule itself
Assay: SEC-MALS

B1: Exo-β-N-acetylmuramidase NamZ of Bacillus subtilis 168, recombinant, C-terminal His6-tag fusion protein (enzyme)
chain: SPDSKNQTAKKPKVQTGIDTLLPDYKKQLKGKRIGLITNPAGVNTSLKSSVDILYENPDIKLTALFGPEHGVRGDAQAGDEVGSYIDEKTGVPVYSLYGKTKKPTPEMLKNVDILMFDIQDVGTRFYTYIYTMAYAMEAAKENGIPFMVLDRPNPQGGNHIEGPILEPEYASFVGLYPIPLKHGMTIGELASLFNKEFSIDADLTVVKMKHWKRKMDFDDTRLPFVLPSPNMPTVESTFVYPATGLIEGTNISEGRGTTKPFELIGAPFIKSTELEETLNSLHLPGVTFRAASFTPTFSKHQGTLCHGVQLYVTDRDKFEAVKTGLSVIKTIHDLYPEDFEFLSTGSFDKLAGNGWIRTKIENGTSVENIINSYEKTLQQFSKTRKKYLIY
B1 was tested, and the “stoichiometry N” value was 2.

— publication doi:10.1101/2021.01.10.425899 (bioRxiv, 2021)
